Results reported in IntAct's records for PubMed 25910212.

B1: DNA ligase 4 (Homo sapiens), P49917 (parent)
chain: MAASQTSQTVASHVPFADLCSTLERIQKSKGRAEKIRHFREFLDSWRKFHDALHKNHKDVTDSFYPAMRLILPQLERERMAYGIKETMLAKLYIELLNLPRDGKDALKLLNYRTPTGTHGDAGDFAMIAYFVLKPRCLQKGSLTIQQVNDLLDSIASNNSAKRKDLIKKSLLQLITQSSALEQKWLIRMIIKDLKLGVSQQTIFSVFHNDAAELHNVTTDLEKVCRQLHDPSVGLSDISITLFSAFKPMLAAIADIEHIEKDMKHQSFYIETKLDGERMQMHKDGDVYKYFSRNGYNYTDQFGASPTEGSLTPFIHNAFKADIQICILDGEMMAYNPNTQTFMQKGTKFDIKRMVEDSDLQTCYCVFDVLMVNNKKLGHETLRKRYEILSSIFTPIPGRIEIVQKTQAHTKNEVIDALNEAIDKREEGIMVKQPLSIYKPDKRGEGWLKIKPEYVSGLMDELDILIVGGYWGKGSRGGMMSHFLCAVAEKPPPGEKPSVFHTLSRVGSGCTMKELYDLGLKLAKYWKPFHRKAPPSSILCGTEKPEVYIEPCNSVIVQIKAAEIVPSDMYKTGCTLRFPRIEKIRDDKEWHECMTLDDLEQLRGKASGKLASKHLYIGGDDEPQEKKRKAAPKMKKVIGIIEHLKAPNLTNVNKISNIFEDVEFCVMSGTDSQPKPDLENRIAEFGGYIVQNPGPDTYCVIAGSENIRVKNIILSNKHDVVKPAWLLECFKTKSFVPWQPRFMIHMCPSTKEHFAREYDCYGDSYFIDTDLNQLKEVFSGIKNSNEQTPEEMASLIADLEYRYSWDCSPLSMFRRHTVYLDSYAVINDLSTKNEGTRLAIKALELRFHGAKVVSCLAEGVSHVIIGEDHSRVADFKAFRRTFKRKFKILKESWVTDSIDKCELQEENQYLI
B2: Cullin-4B (Homo sapiens), Q13620 (parent)
chain: MMSQSSGSGDGNDDEATTSKDGGFSSPSPSAAAAAQEVRSATDGNTSTTPPTSAKKRKLNSSSSSSSNSSNEREDFDSTSSSSSTPPLQPRDSASPSTSSFCLGVSVAASSHVPIQKKLRFEDTLEFVGFDAKMAEESSSSSSSSSPTAATSQQQQLKNKSILISSVASVHHANGLAKSSTTVSSFANSKPGSAKKLVIKNFKDKPKLPENYTDETWQKLKEAVEAIQNSTSIKYNLEELYQAVENLCSYKISANLYKQLRQICEDHIKAQIHQFREDSLDSVLFLKKIDRCWQNHCRQMIMIRSIFLFLDRTYVLQNSMLPSIWDMGLELFRAHIISDQKVQNKTIDGILLLIERERNGEAIDRSLLRSLLSMLSDLQIYQDSFEQRFLEETNRLYAAEGQKLMQEREVPEYLHHVNKRLEEEADRLITYLDQTTQKSLIATVEKQLLGEHLTAILQKGLNNLLDENRIQDLSLLYQLFSRVRGGVQVLLQQWIEYIKAFGSTIVINPEKDKTMVQELLDFKDKVDHIIDICFLKNEKFINAMKEAFETFINKRPNKPAELIAKYVDSKLRAGNKEATDEELEKMLDKIMIIFRFIYGKDVFEAFYKKDLAKRLLVGKSASVDAEKSMLSKLKHECGAAFTSKLEGMFKDMELSKDIMIQFKQYMQNQNVPGNIELTVNILTMGYWPTYVPMEVHLPPEMVKLQEIFKTFYLGKHSGRKLQWQSTLGHCVLKAEFKEGKKELQVSLFQTLVLLMFNEGEEFSLEEIKQATGIEDGELRRTLQSLACGKARVLAKNPKGKDIEDGDKFICNDDFKHKLFRIKINQIQMKETVEEQASTTERVFQDRQYQIDAAIVRIMKMRKTLSHNLLVSEVYNQLKFPVKPADLKKRIESLIDRDYMERDKENPNQYNYIA
partner: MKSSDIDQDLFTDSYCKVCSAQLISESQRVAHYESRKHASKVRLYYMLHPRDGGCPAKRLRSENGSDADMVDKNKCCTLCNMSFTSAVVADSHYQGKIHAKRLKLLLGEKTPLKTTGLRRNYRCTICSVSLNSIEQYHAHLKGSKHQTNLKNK
B3: U4/U6 small nuclear ribonucleoprotein Prp31 (Homo sapiens), Q8WWY3 (parent)
chain: MSLADELLADLEEAAEEEEGGSYGEEEEEPAIEDVQEETQLDLSGDSVKTIAKLWDSKMFAEIMMKIEEYISKQAKASEVMGPVEAAPEYRVIVDANNLTVEIENELNIIHKFIRDKYSKRFPELESLVPNALDYIRTVKELGNSLDKCKNNENLQQILTNATIMVVSVTASTTQGQQLSEEELERLEEACDMALELNASKHRIYEYVESRMSFIAPNLSIIIGASTAAKIMGVAGGLTNLSKMPACNIMLLGAQRKTLSGFSSTSVLPHTGYIYHSDIVQSLPPDLRRKAARLVAAKCTLAARVDSFHESTEGKVGYELKDEIERKFDKWQEPPPVKQVKPLPAPLDGQRKKRGGRRYRKMKERLGLTEIRKQANRMSFGEIEEDAYQEDLGFSLGHLGKSGSGRVRQTQVNEATKARISKTLQRTLQKQSVVYGGKSTIRDRSSGTASSVAFTPLQGLEIVNPQAAEKKVAEANQKYFSSMAEFLKVKGEKSGLMST
partner: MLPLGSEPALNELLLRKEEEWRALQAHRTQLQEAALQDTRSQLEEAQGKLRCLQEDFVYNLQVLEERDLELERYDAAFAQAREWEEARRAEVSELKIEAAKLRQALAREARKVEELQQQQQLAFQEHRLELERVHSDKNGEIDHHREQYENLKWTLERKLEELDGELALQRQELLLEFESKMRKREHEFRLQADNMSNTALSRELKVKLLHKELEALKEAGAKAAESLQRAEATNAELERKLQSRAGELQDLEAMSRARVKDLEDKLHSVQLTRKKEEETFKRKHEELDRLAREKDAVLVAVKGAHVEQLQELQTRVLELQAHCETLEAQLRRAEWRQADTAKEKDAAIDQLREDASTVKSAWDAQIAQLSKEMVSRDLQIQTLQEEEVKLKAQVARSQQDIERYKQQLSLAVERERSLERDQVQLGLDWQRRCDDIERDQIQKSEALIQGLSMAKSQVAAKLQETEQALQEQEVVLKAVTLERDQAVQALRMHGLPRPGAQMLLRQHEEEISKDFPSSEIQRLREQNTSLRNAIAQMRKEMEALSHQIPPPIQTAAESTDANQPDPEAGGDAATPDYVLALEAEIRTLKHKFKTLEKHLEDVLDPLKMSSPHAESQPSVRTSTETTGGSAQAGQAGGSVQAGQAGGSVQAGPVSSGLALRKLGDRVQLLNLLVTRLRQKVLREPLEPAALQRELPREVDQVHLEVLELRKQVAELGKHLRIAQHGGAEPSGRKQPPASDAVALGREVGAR
B4: Complement factor H-related protein 5 (Homo sapiens), Q9BXR6 (parent)
chain: MLLLFSVILISWVSTVGGEGTLCDFPKIHHGFLYDEEDYNPFSQVPTGEVFYYSCEYNFVSPSKSFWTRITCTEEGWSPTPKCLRMCSFPFVKNGHSESSGLIHLEGDTVQIICNTGYSLQNNEKNISCVERGWSTPPICSFTKGECHVPILEANVDAQPKKESYKVGDVLKFSCRKNLIRVGSDSVQCYQFGWSPNFPTCKGQVRSCGPPPQLSNGEVKEIRKEEYGHNEVVEYDCNPNFIINGPKKIQCVDGEWTTLPTCVEQVKTCGYIPELEYGYVQPSVPPYQHGVSVEVNCRNEYAMIGNNMITCINGIWTELPMCVATHQLKRCKIAGVNIKTLLKLSGKEFNHNSRIRYRCSDIFRYRHSVCINGKWNPEVDCTEKREQFCPPPPQIPNAQNMTTTVNYQDGEKVAVLCKENYLLPEAKEIVCKDGRWQSLPRCVESTAYCGPPPSINNGDTTSFPLSVYPPGSTVTYRCQSFYKLQGSVTVTCRNKQWSEPPRCLDPCVVSEENMNKNNIQLKWRNDGKLYAKTGDAVEFQCKFPHKAMISSPPFRAICQEGKFEYPICE
partner: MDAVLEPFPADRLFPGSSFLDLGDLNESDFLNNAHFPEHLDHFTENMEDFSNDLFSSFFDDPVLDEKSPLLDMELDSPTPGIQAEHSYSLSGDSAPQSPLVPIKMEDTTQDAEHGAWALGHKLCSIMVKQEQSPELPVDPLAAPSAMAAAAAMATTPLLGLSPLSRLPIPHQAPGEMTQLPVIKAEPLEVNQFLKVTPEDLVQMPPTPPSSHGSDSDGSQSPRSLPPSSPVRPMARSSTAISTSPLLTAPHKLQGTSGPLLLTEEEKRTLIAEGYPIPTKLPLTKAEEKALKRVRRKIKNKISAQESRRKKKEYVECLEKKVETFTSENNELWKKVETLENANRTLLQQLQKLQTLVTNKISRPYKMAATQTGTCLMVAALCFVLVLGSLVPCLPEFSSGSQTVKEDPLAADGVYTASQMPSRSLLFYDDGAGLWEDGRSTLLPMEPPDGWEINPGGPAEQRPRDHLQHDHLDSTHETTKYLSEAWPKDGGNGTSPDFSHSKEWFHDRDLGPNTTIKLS

Variants of: B1
Details: with xrcc4_human XRCC4, Q13426
Chain of xrcc4_human XRCC4, Q13426 (Q13426 whole entry): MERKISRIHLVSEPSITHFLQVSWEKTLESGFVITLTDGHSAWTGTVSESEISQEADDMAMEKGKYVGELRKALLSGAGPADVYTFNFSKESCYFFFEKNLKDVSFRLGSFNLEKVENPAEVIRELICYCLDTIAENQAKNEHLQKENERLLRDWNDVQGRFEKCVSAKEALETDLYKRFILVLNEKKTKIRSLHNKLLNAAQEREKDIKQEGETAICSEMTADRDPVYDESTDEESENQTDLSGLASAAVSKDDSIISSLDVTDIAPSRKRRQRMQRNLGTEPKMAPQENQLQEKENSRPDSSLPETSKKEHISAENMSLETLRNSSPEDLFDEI

Variant | effect of a mutation on the interaction
T9I | with no effect
A857T | with no effect
A3V | disrupting interaction strength

Variants of: B2
Details: with ZMAT4, Q9H898-2

Variant | effect of a mutation on the interaction
T213I | with no effect
V745A | with no effect

Variants of: B3
Details: with CCDC57, Q2TAC2-2

Variant | effect of a mutation on the interaction
L107V | with no effect

Variants of: B4
Details: with cr3l1_human CREB3L1, Q96BA8

Variant | effect of a mutation on the interaction
P46S | with no effect
R356H | with no effect
F192L | with no effect
G145E | with no effect
